Assay results published in publication PMC5501724, “Structural Basis for Specific Interaction of TGFβ Signaling Regulators SARA/Endofin with HD-PTP” (Structure(London, England:1993), 2017).

B1: endofin 22-mer peptide (first 22 residues of endofin) [human] / His6-HD-PTP_(Bro1-CC) (1-714), bacterially expressed [human] (parent complex)
chain 1: MDSYFKAAVSDLDKLLDDFEQN
chain 2: MEAVPRMPMIWLDLKEAGDFHFQPAVKKFVLKNYGENPEAYNEELKKLELLRQNAVRVPRDFEGCSVLRKYLGQLHYLQSRVPMGSGQEAAVPVTWTEIFSGKSVAHEDIKYEQACILYNLGALHSMLGAMDKRVSEEGMKVSCTHFQCAAGAFAYLREHFPQAYSVDMSRQILTLNVNLMLGQAQECLLEKSMLDNRKSFLVARISAQVVDYYKEACRALENPDTASLLGRIQKDWKKLVQMKIYYFAAVAHLHMGKQAEEQQKFGERVAYFQSALDKLNEAIKLAKGQPDTVQDALRFTMDVIGGKYNSAKKDNDFIYHEAVPALDTLQPVKGAPLVKPLPVNPTDPAVTGPDIFAKLVPMAAHEASSLYSEEKAKLLREMMAKIEDKNEVLDQFMDSMQLDPETVDNLDAYSHIPPQLMEKCAALSVRPDTVRNLVQSMQVLSGVFTDVEASLKDIRDLLEEDELLEQKFQEAVGQAGAISITSKAELAEVRREWAKYMEVHEKASFTNSELHRAMNLHVGNLRLLSGPLDQVRAALPTPALSPEDKAVLQNLKRILAKVQEMRDQRVSLEQQLRELIQKDDITASLVTTDHSEMKKLFEEQLKKYDQLKVYLEQNLAAQDRVLCALTEANVQYAAVRRVLSDLDQKWNSTLQTLVASYEAYEDLMKKSQEGRDFYADLESKVAALLERTQSTCQAREAARQQLLDRELKK
B2: HA-HD-PTP_(Bro1-CC) wild-type, expressed in cells [human] / endogenous endofin [human (endogenous in HEK293)] (parent complex)
chain 1: B1 chain 2
chain 2: MDSYFKAAVSDLDKLLDDFEQNPDEQDYLQDVQNAYDSNHCSVSSELASSQRTSLLPKDQECVNSCASSETSYGTNESSLNEKTLKGLTSIQNEKNVTGLDLLSSVDGGTSDEIQPLYMGRCSKPICDLISDMGNLVHATNSEEDIKKLLPDDFKSNADSLIGLDLSSVSDTPCVSSTDHDSDTVREQQNDISSELQNREIGGIKELGIKVDTTLSDSYNYSGTENLKDKKIFNQLESIVDFNMSSALTRQSSKMFHAKDKLQHKSQPCGLLKDVGLVKEEVDVAVITAAECLKEEGKTSALTCSLPKNEDLCLNDSNSRDENFKLPDFSFQEDKTVIKQSAQEDSKSLDLKDNDVIQDSSSALHVSSKDVPSSLSCLPASGSMCGSLIESKARGDFLPQHEHKDNIQDAVTIHEEIQNSVVLGGEPFKENDLLKQEKCKSILLQSLIEGMEDRKIDPDQTVIRAESLDGGDTSSTVVESQEGLSGTHVPESSDCCEGFINTFSSNDMDGQDLDYFNIDEGAKSGPLISDAELDAFLTEQYLQTTNIKSFEENVNDSKSQMNQIDMKGLDDGNINNIYFNAEAGAIGESHGINIICEIVDKQNTIENGLSLGEKSTIPVQQGLPTSKSEITNQLSVSDINSQSVGGARPKQLFSLPSRTRSSKDLNKPDVPDTIESEPSTADTVVPITCAIDSTADPQVSFNSNYIDIESNSEGGSSFVTANEDSVPENTCKEGLVLGQKQPTWVPDSEAPNCMNCQVKFTFTKRRHHCRACGKVFCGVCCNRKCKLQYLEKEARVCVVCYETISKAQAFERMMSPTGSNLKSNHSDECTTVQPPQENQTSSIPSPATLPVSALKQPGVEGLCSKEQKRVWFADGILPNGEVADTTKLSSGSKRCSEDFSPLSPDVPMTVNTVDHSHSTTVEKPNNETGDITRNEIIQSPISQVPSVEKLSMNTGNEGLPTSGSFTLDDDVFAETEEPSSPTGVLVNSNLPIASISDYRLLCDINKYVCNKISLLPNDEDSLPPLLVASGEKGSVPVVEEHPSHEQIILLLEGESFHPVTFVLNANLLVNVKFIFYSSDKYWYFSTNGLHGLGQAEIIILLLCLPNEDTIPKDIFRLFITIYKDALKGKYIENLDNITFTESFLSSKDHGGFLFITPTFQKLDDLSLPSNPFLCGILIQKLEIPWAKVFPMRLMLRLGAEYKAYPAPLTSIRGRKPLFGEIGHTIMNLLVDLRNYQYTLHNIDQLLIHMEMGKSCIKIPRKKYSDVMKVLNSSNEHVISIGASFSTEADSHLVCIQNDGIYETQANSATGHPRKVTGASFVVFNGALKTSSGFLAKSSIVEDGLMVQITPETMNGLRLALREQKDFKITCGKVDAVDLREYVDICWVDAEEKGNKGVISSVDGISLQGFPSEKIKLEADFETDEKIVKCTEVFYFLKDQDLSILSTSYQFAKEIAMACSAALCPHLKTLKSNGMNKIGLRVSIDTDMVEFQAGSEGQLLPQHYLNDLDSALIPVIHGGTSNSSLPLEIELVFFIIEHLF
B3: endofin_(1–84)-strep, in vitro translated [modified: 35S-methionine; 35S-methionine] [human] / His6-HD-PTP_(Bro1-CC) (1-714), bacterially expressed [human] (parent complex)
chain 1: MDSYFKAAVSDLDKLLDDFEQNPDEQDYLQDVQNAYDSNHCSVSSELASSQRTSLLPKDQECVNSCASSETSYGTNESSLNEKT
chain 2: B1 chain 2
B4: endofin 22-mer peptide (first 22 residues of endofin) [human] / His6-HD-PTP_(Bro1) (1-361) [human] (parent complex)
chain 1: MDSYFKAAVSDLDKLLDDFEQN
chain 2: MEAVPRMPMIWLDLKEAGDFHFQPAVKKFVLKNYGENPEAYNEELKKLELLRQNAVRVPRDFEGCSVLRKYLGQLHYLQSRVPMGSGQEAAVPVTWTEIFSGKSVAHEDIKYEQACILYNLGALHSMLGAMDKRVSEEGMKVSCTHFQCAAGAFAYLREHFPQAYSVDMSRQILTLNVNLMLGQAQECLLEKSMLDNRKSFLVARISAQVVDYYKEACRALENPDTASLLGRIQKDWKKLVQMKIYYFAAVAHLHMGKQAEEQQKFGERVAYFQSALDKLNEAIKLAKGQPDTVQDALRFTMDVIGGKYNSAKKDNDFIYHEAVPALDTLQPVKGAPLVKPLPVNPTDPAVTGPDIFAKLV

Variants of: B1
Experiment: biosensor binding (sensogram); parent: 80; read off a plot

response	Variant
~0 RU	chain 1 MDSYFKAAVSDLDKPLDDFEQN [chain 1 L15P]

Variants of: B2
Experiment: anti-HA immunoprecipitation from cells, anti-endofin immunoblot, quantitation; four independent experiments (mean ± SD); parent: 100; read off a plot

percent of parent	Variant
~59 % of WT	chain 1 R198M
~13 % of WT	chain 1 T145K
~68 % of WT	chain 1 R69L

Second part, the variant before the results:

Variant	percent of parent
chain 1 F62E	~30 % of WT
chain 1 L202D	~9.5 % of WT
chain 1 H125A	~23 % of WT

Variants of: B3
Experiment: co-immunoprecipitation with anti-His6 antibody, quantitation of blots; three independent experiments (mean ± SD); parent: 100; read off a plot

percent of parent	Variant
~6 % binding (rel. to WT)	chain 1 MDSYFKAAVSDLDKPLDDFEQNPDEQDYLQDVQNAYDSNHCSVSSELASSQRTSLLPKDQECVNSCASSETSYGTNESSLNEKT [chain 1 L15P]

Variants of: B4
Experiment: biosensor binding (sensogram); parent: 110; read off a plot

response	Variant
~0 RU	chain 1 MDSYFKAAVSDLDKPLDDFEQN [chain 1 L15P]
